Assay results reported in patent US6462016 (SHISEIDO, dated 2002).

Target: maxadilan (recombinant represented by SEQ ID NO: 2, peptide fragment GSIL- bound to the N-terminal cysteine … (Lutzomyia longipalpis (sand fly), UniProt P30659 24-86))
Test: ^125I-Max saturation binding and Scatchard plot, rabbit spleen crude membrane fraction, filtration

B1: maxadilan receptor of the rabbit (maxadilan-specific receptor in crude membrane fractions from rabbit brain and rabbit spleen) (receptor)
chain: MAGVLQVSLAALLLLPAATAMHSDCIFKKEQALCLEKIQRANDLLGLNDSSPGCPGMWDNITCWKPAHVGEMVLVSCPELFRIFNPDQGEFDFAESTSLDLADMGVVSRNCTEDGWSEPFPHYFDACGFDEYESEPGDQDYYYLSVKALYTVGYSTSLVTLTTAMVILCRFRKLHCTRNFIHMNLFVSFMLRAISVFIKDWILYAEQDSNHCFVSTVECKAVMVFFHYCVVSNYFWLFIEGLYLFTLLVETFFPERRYFYWYTMIGWGTPTVCVAVWATLRLYFDDTGCWDMNDSTALWWVIKGPVVASIMVNFVLFIGIIIILVQKLQSPDTGGNESSIYLRLARSTLLLIPLFGIHYTVFAFSPENVSKRERLVFELGLGSFQGFVVAVLYCFLNGEVQAEIKRKWRSWKVNRYFAVDFKHRHPSLASSGVNGGTQLSILSKSSSQLRMSGLPADNLAT
B1 gave a Kd of 0.055 nM.
